Values of other authors in article PMC9154193.
Blank lines part the entries; values can stand above or below the substance they belong to.

Columns and labels:
ULBP3 (Homo sapiens) = ULBP3 (Homo sapiens) (UniProt Q9BZM4)
Grb2 SH3 (Homo sapiens) = Grb2 SH3 (Homo sapiens) (UniProt P62993)
Lck SH2 (Homo sapiens) = Lck SH2 (Homo sapiens) (UniProt P06239)
Sequence of UniProt P06239 (P06239 124-227): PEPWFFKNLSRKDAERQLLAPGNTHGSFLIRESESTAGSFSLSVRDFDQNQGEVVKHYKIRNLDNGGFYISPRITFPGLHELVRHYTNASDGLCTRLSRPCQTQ

Sequence of UniProt P62993 (P62993 156-215): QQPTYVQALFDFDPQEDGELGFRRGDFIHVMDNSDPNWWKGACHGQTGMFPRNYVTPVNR
Sequence of UniProt Q9BZM4 (Q9BZM4 30-217): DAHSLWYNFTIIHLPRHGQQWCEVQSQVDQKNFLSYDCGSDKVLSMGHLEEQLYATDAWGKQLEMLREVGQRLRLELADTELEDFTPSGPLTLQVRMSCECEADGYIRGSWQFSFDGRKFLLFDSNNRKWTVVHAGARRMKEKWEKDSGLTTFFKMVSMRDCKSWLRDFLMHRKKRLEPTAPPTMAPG

Kd (ULBP3 (Homo sapiens)): 4 µM
Substance: NKG2D (from UniProt P26718)

Kd (Grb2 SH3 (Homo sapiens)): 16.8 µM
Substance: Vav1 SH3 (from UniProt P15498)

Kd (Lck SH2 (Homo sapiens)): 1.39 µM
Substance: Vav1 phospho-tyrosine region (from UniProt P15498)
